Measured values: paper doi:10.1101/2024.10.16.618688
Several values for one entry are separate records, joined by “and”; a condition that tells them apart may be missing. Equal values may be shown once.

How the values were obtained:
[1] = target: NRX1β ECD (aa 81 - 311) labeled with Alexa Fluorophore 488 (mouse) (UniProt P0DI97); experiment: fluorescence polarisation
[2] = target: full-length neuroligin 2 (NL2), wild type (mouse) (UniProt Q69ZK9); experiment: cryo-EM structure

| Kd [1] | stoichiometry N (NRX1β per NL2 dimer) [2] | stoichiometry N [2] | Substance |
| --- | --- | --- | --- |
| 0.3 µM |  |  | NL2 H279Y G282K mutant (from UniProt Q69ZK9 170-836) (natural protein) |
|  | 2 and 1 |  | full-length neurexin 1β (NRX1β), wild type (from UniProt P0DI97 47-468) (natural protein) |
| 6 µM |  | 2 | full-length neuroligin 2 (NL2), wild type (from UniProt Q69ZK9 15-836) (natural protein) |
